# In US20070243181:
# B1: recombinant IRAK4 (protein)
# chain: MNKPITPSTYVRCLNVGLIRKLSDFIDPQEGWKKLAVAIKKPSGDDRYNQFHIRRFEALLQTGKSPTSELLFDWGTTNCTVGDLVDLLIQNEFFAPASLLLPDAVPKTANTLPSKEAITVQQKQMPFCDKDRTLMTPVQNLEQSYMPPDSSSPENKSLEVSDTRFHSFSFYELKNVTNNFDERPISVGGNKMGEGGFGVVYKGYVNNTTVAVKKLAAMVDITTEELKQQFDQEIKVMAKCQHENLVELLGFSSDGDDLCLVYVYMPNGSLLDRLSCLDGTPPLSWHMRCKIAQGAANGINFLHENHHIHRDIKSANILLDEAFTAKISDFGLARASEKFAQTVMTSRIVGTTAYMAPEALRGEITPKSDIYSFGVVLLEIITGLPAVDEHREPQLLLDIKEEIEDEEKTIEDYIDKKMNDADSTSVEAMYSVASQCLHEKKNKRPDIKKVQQLLQEMTAS
# Assays:
# [1] = biological target: myc-IRAK1c
# [2] = biological target: myc-IRAK1c-KD
# Sequence of myc-IRAK1c-KD (chain, as listed by the source): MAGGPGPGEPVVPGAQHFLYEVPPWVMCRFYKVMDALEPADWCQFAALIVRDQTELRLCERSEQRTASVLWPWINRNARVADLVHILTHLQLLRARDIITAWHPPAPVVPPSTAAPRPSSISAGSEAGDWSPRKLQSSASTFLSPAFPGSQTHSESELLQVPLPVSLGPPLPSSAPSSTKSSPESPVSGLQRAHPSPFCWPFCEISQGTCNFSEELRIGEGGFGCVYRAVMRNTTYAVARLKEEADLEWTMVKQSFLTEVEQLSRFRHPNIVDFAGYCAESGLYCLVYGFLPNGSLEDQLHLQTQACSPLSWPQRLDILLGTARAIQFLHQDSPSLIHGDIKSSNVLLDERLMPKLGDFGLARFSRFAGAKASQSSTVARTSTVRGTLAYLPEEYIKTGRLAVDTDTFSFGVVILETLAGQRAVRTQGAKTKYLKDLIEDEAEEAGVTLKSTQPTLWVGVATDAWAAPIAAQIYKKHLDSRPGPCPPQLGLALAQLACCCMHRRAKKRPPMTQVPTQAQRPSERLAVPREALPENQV
# Sequence of myc-IRAK1c (chain, as listed by the source): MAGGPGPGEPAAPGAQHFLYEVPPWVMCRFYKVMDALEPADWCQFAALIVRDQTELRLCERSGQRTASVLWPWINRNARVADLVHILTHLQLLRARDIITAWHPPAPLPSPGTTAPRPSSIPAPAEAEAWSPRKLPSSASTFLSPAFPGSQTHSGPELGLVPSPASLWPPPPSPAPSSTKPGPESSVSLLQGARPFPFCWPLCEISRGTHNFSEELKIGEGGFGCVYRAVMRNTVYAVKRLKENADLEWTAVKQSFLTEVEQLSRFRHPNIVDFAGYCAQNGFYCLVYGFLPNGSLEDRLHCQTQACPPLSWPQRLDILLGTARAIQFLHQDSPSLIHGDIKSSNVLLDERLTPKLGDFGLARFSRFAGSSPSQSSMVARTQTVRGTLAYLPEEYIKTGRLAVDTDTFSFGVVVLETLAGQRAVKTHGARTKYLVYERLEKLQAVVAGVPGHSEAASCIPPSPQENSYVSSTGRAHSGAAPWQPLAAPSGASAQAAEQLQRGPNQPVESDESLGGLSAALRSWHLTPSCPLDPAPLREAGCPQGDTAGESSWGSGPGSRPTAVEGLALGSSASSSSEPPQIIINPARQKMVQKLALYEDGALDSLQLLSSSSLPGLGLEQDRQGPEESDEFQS
protein,measurement,setting,value
B1,"in vitro kinase assay on anti-myc immunoprecipitates, autoradiography",[1],Neither IPAK1c nor IPAK1c-KD showed any phosphorylation in the presence of IRAK4
same,"in vitro kinase assay on anti-myc immunoprecipitates, autoradiography",[2],Neither IPAK1c nor IPAK1c-KD showed any phosphorylation in the presence of IRAK4
